Results as given in patent publication US8822645B2, “Prostaglandin E2 dual variable domain immunoglobulins and uses thereof” (AbbVie Inc., priority 2008, dated 2014).

What was measured:
[1] = tested on: PGE2 / human EP4 receptor in HEK293 Gα16 cells; assay: EP4 bioassay (Ca++ flux, neutralization of PGE2); format: cell-based; settings: PGE2 VD in C-terminal position; EP4 bioassay, Ca++ flux; read-out: C-terminal VD PGE2 Neutralization EC50
Procedure, shortened: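 Ca++ flux (FLIPR) in HEK293 Gα16 cells stably expressing human EP4, loaded with Ca++-sensitive dye for 90 min. PGE2, alone or pre-incubated with anti-PGE2 antibody, DVD-Ig or isotype control, was added in FLIPR buffer (HBSS, 20 mM HEPES, 0.1% BSA, 2.5 mM probenecid). EC50 derived from PGE2 dose-response.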

[2] = Size exclusion chromatography, percent monomer of parent antibodies and DVD-Ig constructs; format: physicochemical
Protocol: Antibodies were diluted to 2.5 mg/mL with water and […] is analyzed on a Shimadzu HPLC system using a TSK gel G3000 SWXL column (Tosoh Bioscience, cat#k5539-05k). […] The HPLC system operating conditions are the following: […]

B1: DVD152: DVD-Ig construct listed in Table 4 (antibody)
VH: EVQLQESGPGLVRPSQTLSLTCTVSGYSITSDHAWSWVRQPPGRGLEWIGYISYSGITTYNPSLKSRVTMLRDTSKNQFSLRLSSVTAADTAVYYCARSLARTTAMDYWGQGSLVTVSSASTKGPEVQLVQSGAEVKKPGASVKVSCKASGYTFTKYWLGWVRQAPGQGLEWMGDIYPGYDYTHYNEKFKDRVTLTTDTSTSTAYMELRSLRSDDTAVYYCARSDGSSTYWGQGTLVTVSS
VL: DIQMTQSPSSLSASVGDRVTITCRASQDISSYLNWYQQKPGKAPKLLIYYTSRLHSGVPSRFSGSGSGTDFTFTISSLQPEDIATYYCQQGNTLPYTFGQGTKVEIKRTVAAPDVLMTQTPLSLPVTPGEPASISCTSSQNIVHSNGNTYLEWYLQKPGQSPQLLIYKVSNRFSGVPDRFSGSGSGTDFTLKISRVEAEDVGVYYCFQVSHVPYTFGGGTKVEIKR
With B1 the EC50 [1] was 25 pM and the “% Monomer (purity)” value [2] was 87.6%.
